Experimental data as given in US20220112276A1 (Janssen / Centocor, published 2022).
Substitutions are numbered along the chain they refer to.

B1: 03D09R3 VHH Mono-Fc (Fc fusion)
chain: QVQLVESGGGLVQAGGSLRLSCAASGRTVSSVAMGWFRQAPGKEREFVATISWTGGSTYYADSVKGRFTISRDNAKNTAYLQMNSLKPEDTAVYYCAAGYPADPIALMTLRYEYDYWGQGTLVTVSSSPAPELLGGPSVFLFPPKPKDTLMISRTPEVTCVVVDVSHEDPEVKFNWYVDGVEVHNAKTKPREEQYNSTYRVVSVLTVLHQDWLNGKEYKCKVSNKALPAPIEKTISKAKGQPREPQVYTKPPSREEMTKNQVSLSCLVKGFYPSDIAVEWESNGQPENNYKTTVPVLDSDGSFRLASYLTVDKSRWQQGNVFSCSVMHEALHNHYTQKSLSLSPGK
B2: 01D08R3 VHH Mono-Fc (Fc fusion)
chain: QVQLVESGGGLVQAGDSLRLSCAASGRTSSLYNMGWFRQAPGQEREFVAAIHWGGGRTYYADSVKGRFTISRDNAKNTVYLQMNSLEPGDTANYYCAARRAPELLDDYKQKPEEIGAYHYWGQGTQVTVSSSPAPELLGGPSVFLFPPKPKDTLMISRTPEVTCVVVDVSHEDPEVKFNWYVDGVEVHNAKTKPREEQYNSTYRVVSVLTVLHQDWLNGKEYKCKVSNKALPAPIEKTISKAKGQPREPQVYTKPPSREEMTKNQVSLSCLVKGFYPSDIAVEWESNGQPENNYKTTVPVLDSDGSFRLASYLTVDKSRWQQGNVFSCSVMHEALHNHYTQKSLSLSPGK
B3: 01E10R3 VHH Mono-Fc (Fc fusion)
chain: QVQLVESGGGLVQSGGSLRLSCAASGRTFSDYAMGWFRQAPGKERELVAAITWNGGSTYYADSVKGRFTISRDNAKNTVDLQMNSLKPEDTAVYYCAADPLNSDSAGTYDYWGQGTLVTVSSSPAPELLGGPSVFLFPPKPKDTLMISRTPEVTCVVVDVSHEDPEVKFNWYVDGVEVHNAKTKPREEQYNSTYRVVSVLTVLHQDWLNGKEYKCKVSNKALPAPIEKTISKAKGQPREPQVYTKPPSREEMTKNQVSLSCLVKGFYPSDIAVEWESNGQPENNYKTTVPVLDSDGSFRLASYLTVDKSRWQQGNVFSCSVMHEALHNHYTQKSLSLSPGK
B4: 01D06R2 VHH Mono-Fc (Fc fusion)
chain: QVQLVESGGGLVQAGDSLRLSCAASGRTLSFDTYAMAWFRQAPGKEREFVASIDWNGVNTYYADSVKGRFTVTRDNTKNTVTLRMNSLKTDDTAVYYCAAAQYYRSGTSFPANSWGQGTQVTVSSSPAPELLGGPSVFLFPPKPKDTLMISRTPEVTCVVVDVSHEDPEVKFNWYVDGVEVHNAKTKPREEQYNSTYRVVSVLTVLHQDWLNGKEYKCKVSNKALPAPIEKTISKAKGQPREPQVYTKPPSREEMTKNQVSLSCLVKGFYPSDIAVEWESNGQPENNYKTTVPVLDSDGSFRLASYLTVDKSRWQQGNVFSCSVMHEALHNHYTQKSLSLSPGK
B5: 01F04R3 VHH Mono-Fc (Fc fusion)
chain: QVQLVESGGGLVQAGDSLRLSCAASGRALSFNTYAMAWFRQAPGKEREFVASITYNGGSTYYADSVRGRFTVTRDSGKNTVTLRMNSLKPDDTAVYYCASAQYWRSGTSFPANYWGQGTLVTVSSSPAPELLGGPSVFLFPPKPKDTLMISRTPEVTCVVVDVSHEDPEVKFNWYVDGVEVHNAKTKPREEQYNSTYRVVSVLTVLHQDWLNGKEYKCKVSNKALPAPIEKTISKAKGQPREPQVYTKPPSREEMTKNQVSLSCLVKGFYPSDIAVEWESNGQPENNYKTTVPVLDSDGSFRLASYLTVDKSRWQQGNVFSCSVMHEALHNHYTQKSLSLSPGK
B6: 01F03R2 VHH Mono-Fc (Fc fusion)
chain: QVQLVESGGGLVQAGGSLRLSCAASGRTFSSYAMGWFRQAPGKEREFVAVISWSGGSTYYADSVKGRFTISRDNAKNTVYLQMNSLKPEDTAVYYCASGEQPGSNRPYIPEQPIEFMPTDYPSWYDYWGQGTQVTVSSSPAPELLGGPSVFLFPPKPKDTLMISRTPEVTCVVVDVSHEDPEVKFNWYVDGVEVHNAKTKPREEQYNSTYRVVSVLTVLHQDWLNGKEYKCKVSNKALPAPIEKTISKAKGQPREPQVYTKPPSREEMTKNQVSLSCLVKGFYPSDIAVEWESNGQPENNYKTTVPVLDSDGSFRLASYLTVDKSRWQQGNVFSCSVMHEALHNHYTQKSLSLSPGK
B7: 01B01R3 VHH Mono-Fc (Fc fusion)
chain: B6 chain with Q133L
B8: 02G03R3 VHH Mono-Fc (Fc fusion)
chain: EVQLVESGGGLVQAGGSLRLSCAASGMPDNIFSIKTMGWYRQAPGKERELVAAITSGGSTNYGDSVKDRFTISRDRIENTVNLEMNNLKPEDTAVYTCHADLTYIRFQDMEYWGKGTQVTVSSSPAPELLGGPSVFLFPPKPKDTLMISRTPEVTCVVVDVSHEDPEVKFNWYVDGVEVHNAKTKPREEQYNSTYRVVSVLTVLHQDWLNGKEYKCKVSNKALPAPIEKTISKAKGQPREPQVYTKPPSREEMTKNQVSLSCLVKGFYPSDIAVEWESNGQPENNYKTTVPVLDSDGSFRLASYLTVDKSRWQQGNVFSCSVMHEALHNHYTQKSLSLSPGK
B9: 01C05R3LS VHH Mono-Fc (Fc fusion)
chain: EVQLVESGGGLVQAGGSLRLSCAASGRTINTYVMGWFRQAPGKEREFVARIDWSGSSTDYADSVKGRFTISRDNAKNTVYLQMNSLKPEDTAVYYCAGSAYYSGYVTHRDFGSWGQGTLVTVSSSPAPELLGGPSVFLFPPKPKDTLMISRTPEVTCVVVDVSHEDPEVKFNWYVDGVEVHNAKTKPREEQYNSTYRVVSVLTVLHQDWLNGKEYKCKVSNKALPAPIEKTISKAKGQPREPQVYTKPPSREEMTKNQVSLSCLVKGFYPSDIAVEWESNGQPENNYKTTVPVLDSDGSFRLASYLTVDKSRWQQGNVFSCSVMHEALHNHYTQKSLSLSPGK
B10: 01G09R2 VHH Mono-Fc (Fc fusion)
chain: B9 chain with V64A
B11: 01D07R3LS VHH Mono-Fc (Fc fusion)
chain: B9 chain with E1Q
B12: 01H11R3LS VHH Mono-Fc (Fc fusion)
chain: B9 chain with E1Q, T31G, N77T, M83T, L119Q
B13: 01B10R3LS VHH Mono-Fc (Fc fusion)
chain: B9 chain with E1Q, N30Y, T31G, L119Q
B14: 01D01R3 VHH Mono-Fc (Fc fusion)
chain: EVQLVESGGGLVQAGGSLRLSCAASGRTFSVYGMGWFRQAPGQERAFVAAISWSDGSTYYADSVKGRFTISRDNAKNTMYLQMNSLKPEDTAVYFCAADLTGWGLDADVSEYDYWGQGTQVTVSSSPAPELLGGPSVFLFPPKPKDTLMISRTPEVTCVVVDVSHEDPEVKFNWYVDGVEVHNAKTKPREEQYNSTYRVVSVLTVLHQDWLNGKEYKCKVSNKALPAPIEKTISKAKGQPREPQVYTKPPSREEMTKNQVSLSCLVKGFYPSDIAVEWESNGQPENNYKTTVPVLDSDGSFRLASYLTVDKSRWQQGNVFSCSVMHEALHNHYTQKSLSLSPGK
B15: 02B11R3 VHH Mono-Fc (Fc fusion)
chain: EVQLVESGGGLVQAGGSLRLSCAASGRTFSPYGMGWFRQTPGKERAFVAAVDWNDGSTYYSDSVKGRFTISRDNAKNTVYLQMNSLKSEDTAVYYCAADLTGWGLDADVSEYDYWGQGTLVTVSSSPAPELLGGPSVFLFPPKPKDTLMISRTPEVTCVVVDVSHEDPEVKFNWYVDGVEVHNAKTKPREEQYNSTYRVVSVLTVLHQDWLNGKEYKCKVSNKALPAPIEKTISKAKGQPREPQVYTKPPSREEMTKNQVSLSCLVKGFYPSDIAVEWESNGQPENNYKTTVPVLDSDGSFRLASYLTVDKSRWQQGNVFSCSVMHEALHNHYTQKSLSLSPGK
B16: 01E03R2 VHH Mono-Fc (Fc fusion)
chain: B14 chain with Q120L
B17: 01G04R3 VHH Mono-Fc (Fc fusion)
chain: B14 chain with E1Q
B18: 01F01R2 VHH Mono-Fc (Fc fusion)
chain: QVQLVESGGGLVQAGGSLRLSCAASGRTFSSNPMGWFRQAPGKEREFVAAISWSGGGTYYADSVKGRFTISRDNAKNTVTLQMNSLKPEDTAVYYCASRDYSDPISLWVEDREYDYWGQGTQVTVSSSPAPELLGGPSVFLFPPKPKDTLMISRTPEVTCVVVDVSHEDPEVKFNWYVDGVEVHNAKTKPREEQYNSTYRVVSVLTVLHQDWLNGKEYKCKVSNKALPAPIEKTISKAKGQPREPQVYTKPPSREEMTKNQVSLSCLVKGFYPSDIAVEWESNGQPENNYKTTVPVLDSDGSFRLASYLTVDKSRWQQGNVFSCSVMHEALHNHYTQKSLSLSPGK
B19: 03B07R3 VHH Mono-Fc (Fc fusion)
chain: B18 chain with Q122L
B20: 03D05R3 VHH Mono-Fc (Fc fusion)
chain: B18 chain with Q1E, D111G, Q122L
B21: 01A09R2 VHH Mono-Fc (Fc fusion)
chain: B18 chain with Q1E

Target: T1, cynomolgus monkey pIgR extracellular domain (cynomolgus monkey, UniProt A0A2K5WMU9 19-638)
T1 construct: extracellular domain
T1 sequence (A0A2K5WMU9 entry or part of it): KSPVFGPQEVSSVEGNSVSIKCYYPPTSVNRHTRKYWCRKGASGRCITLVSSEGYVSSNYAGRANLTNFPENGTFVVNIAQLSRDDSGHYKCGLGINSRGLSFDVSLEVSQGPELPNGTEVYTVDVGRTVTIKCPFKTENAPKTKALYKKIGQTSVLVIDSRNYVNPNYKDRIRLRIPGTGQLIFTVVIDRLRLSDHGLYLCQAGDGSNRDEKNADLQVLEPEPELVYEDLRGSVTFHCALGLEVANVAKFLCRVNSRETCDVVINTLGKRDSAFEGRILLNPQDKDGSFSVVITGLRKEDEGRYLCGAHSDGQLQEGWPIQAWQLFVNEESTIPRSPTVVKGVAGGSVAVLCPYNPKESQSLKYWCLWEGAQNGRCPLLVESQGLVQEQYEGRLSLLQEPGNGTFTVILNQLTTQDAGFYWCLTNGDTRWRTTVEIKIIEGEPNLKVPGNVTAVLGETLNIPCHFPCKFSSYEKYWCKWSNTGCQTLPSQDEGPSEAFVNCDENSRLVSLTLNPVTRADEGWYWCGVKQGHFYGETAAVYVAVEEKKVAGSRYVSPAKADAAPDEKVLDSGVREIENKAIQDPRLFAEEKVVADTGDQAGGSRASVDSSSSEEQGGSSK
Experiment: SPR, VHH captured by anti-Fc, ECD analyte
Method: (§1) In an assay, two flow cells of the SPR were used, in which the flow cell 1 ran the buffer reference, and the flow cell 2 ran the analyte. […] The HBSP (GE) buffer was followed at a flow rate of 30 μL/min. Then, the VHHs were captured on the anti-human Fc protein surface at 0.5 ug/ml (˜200-300 RU) on the flow cell 2. The running buffer was changed to HBSP with 100 ug/ml BSA after the capture. Next, the pIgR extracellular domains were used as analyte and loaded in a series of concentrations, starting at 30 nM with further 3-fold dilution series.
(§2) The extracellular domains were prepared as follows: cynomolgus monkey and rat extracellular domains were produced and characterized in house; mouse and human pIgR extracellular domains were purchased from R&D Systems (Cat #2800-PG-050 & 2717-PG-050 respectively). The pIgR extracellular domains were injected from low to high concentration using a single-cycle kinetics method. The off-rate was monitored at 30 minutes after the last or highest concentration injection. The reference run was completed under the same conditions except that the pIgR injection was replaced by buffer injection.
(§3) The raw data were processed by subtracting two sets of reference data from the response data: (1) reference flow cell 1 subtracted from sample flow cell 2; and (2) buffer blank run subtracted from experimental run. The processed data at all concentrations for each VHH were globally fit to a 1:1 simple Langmuir binding model to extract estimates of the kinetic constants (kₒₙ, koff) and affinity constants (KD).

| Kd [nM] | Binder |
| --- | --- |
| 0.004 | B1 |
| 448 | B2 |
| 23.2 | B3 |
| 14.4 | B4 |
| 30.9 | B5 |
| 3.57 | B6 |
| 3.78 | B7 |
| 3.99 | B8 |
| 84.9 | B9 |
| 106 | B10 |
| 103 | B11 |
| 252 | B12 |
| 192 | B13 |
| 375 | B14 |
| 101 | B15 |
| 373 | B16 |
| 399 | B17 |
| 4.08 | B18 |
| 4.26 | B19 |
| 4.59 | B20 |
| 4.02 | B21 |

Target: T2, human pIgR extracellular domain (ECD) (human, UniProt P01833 19-638)
T2 construct: Bought from R&D Systems (Cat 2717-PG-050); also called hpIgR ECD
T2 sequence (P01833 other isoform, or with tags, fused parts or gaps): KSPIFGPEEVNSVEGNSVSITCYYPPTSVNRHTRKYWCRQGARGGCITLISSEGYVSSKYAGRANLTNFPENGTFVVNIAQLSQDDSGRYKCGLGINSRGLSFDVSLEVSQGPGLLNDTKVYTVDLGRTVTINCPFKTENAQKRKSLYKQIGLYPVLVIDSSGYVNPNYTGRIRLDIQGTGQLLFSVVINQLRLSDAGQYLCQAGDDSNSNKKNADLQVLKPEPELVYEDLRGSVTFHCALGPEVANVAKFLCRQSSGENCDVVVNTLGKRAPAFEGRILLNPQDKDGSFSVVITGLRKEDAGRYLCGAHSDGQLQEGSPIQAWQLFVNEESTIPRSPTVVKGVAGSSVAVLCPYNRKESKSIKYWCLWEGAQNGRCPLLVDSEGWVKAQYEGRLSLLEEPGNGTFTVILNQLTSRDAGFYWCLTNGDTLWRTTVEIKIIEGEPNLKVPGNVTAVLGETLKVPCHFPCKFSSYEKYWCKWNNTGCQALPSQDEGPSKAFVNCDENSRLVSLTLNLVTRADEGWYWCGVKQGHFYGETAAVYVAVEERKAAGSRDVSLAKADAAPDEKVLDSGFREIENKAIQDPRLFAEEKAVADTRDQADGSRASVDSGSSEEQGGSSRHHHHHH
Experiment: SPR, VHH captured by anti-Fc, ECD analyte
Method: as §1, §2, §3

| Kd [nM] | Binder |
| --- | --- |
| 0.072 | B1 |
| 0.195 | B2 |
| 1.39 | B3 |
| 1.44 | B4 |
| 5.92 | B5 |
| 1.36 | B6 |
| 1.38 | B7 |
| 1.48 | B8 |
| 5.77 | B9 |
| 6.58 | B10 |
| 9.78 | B11 |
| 8.42 | B12 |
| 38 | B13 |
| 5.96 | B14 |
| 0.858 | B15 |
| 6.1 | B16 |
| 6.22 | B17 |
| 2.13 | B18 |
| 2.33 | B19 |
| 2.14 | B20 |
| 2.14 | B21 |
